Data as given in patent US20070185028A1, “Compositions and methods for treatment of protein misfolding and protein aggregation diseases” (priority 2004, published 2007).

molecular target: beta amyloid (Homo sapiens, UniProt P05067); test: αB crystallin protein pin array, binding of beta amyloid; conditions: immobilized 8-mer peptide; absorption at 450 nm
Excerpt: αB Crystallin peptides that bind the target protein beta-amyloid were identified by screening an αB crystallin protein pin array, which provides a systematic method for evaluating interactions between peptides corresponding to residues 1-175 of human αB crystallin and selected target proteins in a parallel and simultaneous manner.
Peptides were synthesized on derivatized polyethylene pins arranged in a microtiter plate format. Each peptide was 8 amino acids in length and consecutive peptides were offset by 2 amino acids. All peptides were covalently bonded to the surface plastic pins. The first immobilized peptide was 1MDIAIHHP8 and the last peptide was 168PAVTAAPK175 for the human αB crystallin.
After synthesis, the pins were pre-coated at room temperature with 2% Bovine Serum Albumin (BSA), 0.1% Tween-20 and 0.1% Sodium azide in 10 mM phosphate buffered saline pH 7.2 (PBS) for 1 hr, and washed three times for 10 mins each with 10 mM PBS. To screen for binding to the peptides, fixed concentrations of the target protein beta amyloid was dissolved in 10 mM PBS, containing 0.05% Tween-20, added to each well and incubated for 1 hr at room temperature. The pin array was washed three times for 10 mins each with 10 mM PBS, containing 0.05% Tween-20. Monoclonal or polyclonal primary antibodies for the target protein beta amyloid was diluted into PBS buffer, added to each well and incubated for 1 hr at room temperature. Subsequently, the pin array was washed three times for 10 mins each with 10 mM PBS containing 0.05% Tween-20. Anti-rabbit horse-radish peroxidase conjugate secondary antibodies was diluted into PBS buffer, added to each well and incubated for 1 hr at room temperature. The pin array was washed three times for 10 mins each with 10 mM PBS containing 0.05% Tween-20. A chromogenic substrate of horse-radish peroxidase 3,3′,5,5′-Tetramethylbenzidine (TMB) (Pharmingen, San Diego, Calif.) which is colorless was added, and the reaction was carried out for 45 min.
The reaction was stopped by adding 6N sulfuric acid, which changes the color from blue to yellow. The absorption at 450 nm was measured by an ELISA reader (BioTek, Winooski, Vt.).
The pin array was regenerated by sonication in a water bath (VWR Aquasonic, West Chester, Pa.) with 100 mM PBS, containing 1% Sodium dodecyl sulfate (SDS) and 0.1% 2-Mercaptoethanol@60° C. for 10 mins. Next, the pin array was rinsed three times in deionized water, preheated to 60° C. for 30 secs each time, and shaken in water preheated at 60° C. for 30 min. The pin array was then washed with methanol at 60° C. for 15 secs and air-dried and stored @−20° C. for future use. Each target protein was assayed 2-5 times against the human αB crystallin protein pin array peptides to verify the reproducibility of the results. Peptides numbered 5, 7, 8, 9, 13, 19, 22, 23, 24, 27, 35, 38, 45, 51, 52, 56, 57, 61, 66, 71, 72, and 79 in Table 2 reproducibly tested positive in the protein pin assay.

Binding of beta amyloid in the protein pin assay, positive:
FSVNLDVK [Peptide 38]
LTITSSLS [Peptide 66]
WIRRPFFP [Peptide 5]
